Reference: publication PMC6009650

Columns and labels:
[1] = biological target: E. coli RNAP core enzyme carrying a hexahistidine-tagged β’ subunit (E. coli) (UniProt P0A8T7)
[2] = biological target: E. coli RNAP core enzyme carrying a hexahistidine-tagged β’ subunit (E. coli) (UniProt P0A8T7); remark: listed apart in the source

Sequence of UniProt P0A8T7 (P0A8T7 whole entry, looked up): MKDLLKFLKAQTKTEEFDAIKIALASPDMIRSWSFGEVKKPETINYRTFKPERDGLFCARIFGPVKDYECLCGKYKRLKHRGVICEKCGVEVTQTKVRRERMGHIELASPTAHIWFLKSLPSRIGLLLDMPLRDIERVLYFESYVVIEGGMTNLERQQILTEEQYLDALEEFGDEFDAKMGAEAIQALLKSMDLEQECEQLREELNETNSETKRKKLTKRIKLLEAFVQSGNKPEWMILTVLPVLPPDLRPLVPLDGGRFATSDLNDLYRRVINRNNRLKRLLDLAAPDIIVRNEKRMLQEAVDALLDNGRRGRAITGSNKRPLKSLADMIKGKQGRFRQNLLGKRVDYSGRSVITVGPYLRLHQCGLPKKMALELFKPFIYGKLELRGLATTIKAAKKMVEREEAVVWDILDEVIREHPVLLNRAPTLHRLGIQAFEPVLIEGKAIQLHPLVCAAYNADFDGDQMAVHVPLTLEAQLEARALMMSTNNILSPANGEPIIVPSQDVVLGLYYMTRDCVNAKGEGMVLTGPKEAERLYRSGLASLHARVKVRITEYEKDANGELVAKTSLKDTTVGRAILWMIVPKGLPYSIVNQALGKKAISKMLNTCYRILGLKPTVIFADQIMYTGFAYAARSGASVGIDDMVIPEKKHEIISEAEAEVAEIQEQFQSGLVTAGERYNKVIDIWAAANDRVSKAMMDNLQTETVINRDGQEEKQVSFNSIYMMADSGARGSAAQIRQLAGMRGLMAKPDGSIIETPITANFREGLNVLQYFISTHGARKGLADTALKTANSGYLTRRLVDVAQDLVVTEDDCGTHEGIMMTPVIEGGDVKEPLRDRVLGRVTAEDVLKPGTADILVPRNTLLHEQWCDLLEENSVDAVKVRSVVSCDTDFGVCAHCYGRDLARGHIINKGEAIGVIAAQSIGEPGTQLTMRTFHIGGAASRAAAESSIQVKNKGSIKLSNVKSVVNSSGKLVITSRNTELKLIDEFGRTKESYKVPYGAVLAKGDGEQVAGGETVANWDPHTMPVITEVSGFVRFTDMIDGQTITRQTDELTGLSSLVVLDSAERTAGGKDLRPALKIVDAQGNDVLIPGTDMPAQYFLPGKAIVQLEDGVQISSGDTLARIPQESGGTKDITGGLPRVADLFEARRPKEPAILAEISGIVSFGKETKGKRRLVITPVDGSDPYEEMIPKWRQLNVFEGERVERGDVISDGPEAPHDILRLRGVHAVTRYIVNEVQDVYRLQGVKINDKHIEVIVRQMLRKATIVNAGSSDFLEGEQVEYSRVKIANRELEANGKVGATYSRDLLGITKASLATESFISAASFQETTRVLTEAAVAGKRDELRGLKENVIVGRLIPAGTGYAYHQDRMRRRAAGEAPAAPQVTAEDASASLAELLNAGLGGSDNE

B1: Nun protein of HK022 phage (natural protein)
chain: VKKTIYVNPDSGQNRKVSDRGLTSRDRRRIARWEKRIAYALKNGVTPGFNAIDDGPEYKINEDPMDKVDKALATPFPRDVEKIEDEKYEDVMHRVVNHAHQRNPNKKWS
apparent pyrophosphorolysis rate of TEC U10 after pre-incubation with 1 μM Nun (0.21 s^-1 without Nun); 2.5 mM PPi, 5 mM MgCl2 [1]: 2.4 s⁻¹
apparent Vmax of pyrophosphorolysis of TEC U10 with 1 μM Nun (15.7 min^-1 without Nun); [PPi] 10 μM to 2.5 mM [2]: 160 min⁻¹
